{"source": "patent US7858745B2", "about": "“Use of specifically engineered enzymes to enhance the efficacy of prodrugs” (The Board of Trustees of the University of Illinois, priority 2003, dated 2010)", "key": {"[1]": {"system": "Nc1ccn([C@@H]2O[C@H](CO)[C@@H](O)C2(F)F)c(=O)n1", "test": "purified protein, by the assay type", "settings": "other: nucleoside as substrate, pH 7.5"}, "[2]": {"system": "Nc1ccn([C@H]2CC[C@@H](CO)O2)c(=O)n1", "test": "purified protein, by the assay type", "settings": "other: nucleoside as substrate, dCK 0.4 μM, ATP•Mg 1 mM, 37° C., pH 7.5"}, "[3]": {"settings": "dCK 0.4 μM, ATP•Mg 1 mM, 37° C."}}}
{"substance": "A100V/R104M/D133A-dCK (Homo sapiens; A100V/D133A/R104M)", "values": [{"measurement": "Km", "setting": "[1]; triple mutant, 37.0 °C", "value": 50, "unit": "µM"}, {"measurement": "kcat", "setting": "[1]; triple mutant, 37.0 °C", "value": 3.52, "unit": "s⁻¹"}, {"measurement": "kcat/Km", "setting": "[1]; triple mutant, 37.0 °C", "value": 70400, "unit": "M⁻¹ s⁻¹"}]}
{"substance": "Wild Type dCK (Homo sapiens)", "values": [{"measurement": "Km", "setting": "[2]", "value": 406.8, "unit": "µM"}, {"measurement": "kcat", "setting": "[2]", "value": 0.18, "unit": "s⁻¹"}, {"measurement": "kcat/Km", "setting": "[2]", "value": 400, "unit": "M⁻¹ s⁻¹"}, {"measurement": "Km", "setting": "[1]; [3]", "value": 22.0, "unit": "µM"}, {"measurement": "kcat", "setting": "[1]; [3]", "value": 0.37, "unit": "s⁻¹"}, {"measurement": "kcat/Km", "setting": "[1]; [3]", "value": 16800, "unit": "M⁻¹ s⁻¹"}]}
